Measurements from patent publication US6767720 (VLAAMS INTERUNIVERSITAIR INSTITUUT VOOR BIOTECHNOLOGIE VZW, dated 2004).
Values belong to the binder of their own block, whether it stands above or below them.

Columns and labels:
[1] = target: T1, human αE-catenin fused to the GAL4-DBD (plasmid pGBT9αECTN) (human, UniProt P04386 1-147; P35221 1-906, limits assumed); assay: yeast two-hybrid, strain Y190, HIS3 and LacZ reporters (FIG. 11)
T1 construct: also called full-length αE-catenin
Procedure: The plates contained the medium composition indicated at the left completed with 40 mM 3-AT and 80 mg/ml X-gal. GAL4-AD=GAL4 transcription activation domain; GAL4-DBD=GAL4 DNA-binding domain; −LT=SD medium lacking Leu and Trp; −LTH=SD medium lacking Leu, Trp and His. pVA3 and pTD1 are plasmids used as a positive control in the two-hybrid system (Matchmaker™, Clontech).

[2] = target: T2, ANC-2H01 initial two-hybrid clone (part of ANC-2H01 fused to the GAL4-AD, plasmid pGAD10ANC2H01) (human, UniProt Q9UID6 27-485); assay: yeast two-hybrid, strain HF7c, HIS3 and LacZ reporters
T2 construct: 27-485 is derived from 459 of 485 residues; also called ANC-2H01 clone; initial ANC-2H01 two-hybrid clone
T2 sequence: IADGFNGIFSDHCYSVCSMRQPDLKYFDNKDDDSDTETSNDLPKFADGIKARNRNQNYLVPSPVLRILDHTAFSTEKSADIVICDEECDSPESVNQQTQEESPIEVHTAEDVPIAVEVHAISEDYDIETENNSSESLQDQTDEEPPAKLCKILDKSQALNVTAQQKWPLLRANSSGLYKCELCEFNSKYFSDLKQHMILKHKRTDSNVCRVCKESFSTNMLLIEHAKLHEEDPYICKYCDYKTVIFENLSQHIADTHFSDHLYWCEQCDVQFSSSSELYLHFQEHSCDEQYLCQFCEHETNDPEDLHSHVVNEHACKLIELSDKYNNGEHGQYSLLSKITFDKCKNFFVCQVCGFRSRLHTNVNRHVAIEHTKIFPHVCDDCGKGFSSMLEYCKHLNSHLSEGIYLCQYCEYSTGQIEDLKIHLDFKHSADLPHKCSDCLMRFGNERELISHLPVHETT

binding result [1]: no binding
B1: about full-length ANC-2H01 fused to the GAL4-AD (plasmid pGAD424ANC-2H01-FL) (other, not shown: large carriers)
chain: MNEYPKKRKRKTLHPSRYSDSSGISRIADGFNGIFSDHCYSVCSMRQPDLKYFDNKDDDSDTETSNDLPKFADGIKARNRNQNYLVPSPVLRILDHTAFSTEKSADIVICDEECDSPESVNQQTQEESPIEVHTAEDVPIAVEVHAISEDYDIETENNSSESLQDQTDEEPPAKLCKILDKSQALNVTAQQKWPLLRANSSGLYKCELCEFNSKYFSDLKQHMILKHKRTDSNVCRVCKESFSTNMLLIEHAKLHEEDPYICKYCDYKTVIFENLSQHIADTHFSDHLYWCEQCDVQFSSSSELYLHFQEHSCDEQYLCQFCEHETNDPEDLHSHVVNEHACKLIELSDKYNNGEHGQYSLLSKITFDKCKNFFVCQVCGFRSRLHTNVNRHVAIEHTKIFPHVCDDCGKGFSSMLEYCKHLNSHLSEGIYLCQYCEYSTGQIEDLKIHLDFKHSADLPHKCSDCLMRFGNERELISHLPVHETT

binding result [2]: no binding
B2: lamin C fused to the GAL4 DNA binding domain (plasmid pLAM5′) (other, UniProt P04386 1-147, looked up)
chain: MKLLSSIEQACDICRLKKLKCSKEKPKCAKCLKNNWECRYSPKTKRSPLTRAHLTEVESRLERLEQLFLLIFPREDLDMILKMDSLQDIKALLTGLFVQDNVNKDAVTDRLASVETDMPLTLRQHRISATSSSEESSNKGQRQLTVSSEEVVSREVSGIKAAYEAELGDARKTLDSVAKERARLQLELSKVREEFKELKARNTKKEGDLIAAQARLKDLEALLNSKEAALSTALSEKRTLEGELHDLRGQVAKLEAALGEAKKQLQDEMLRRVDAENRLQTMKEELDFQKNIYSEELRETKRRHETRLVEID
notes: Irrelevant control protein
